Experimental findings from PMC5634629, “Heterodimerization of two pore domain K^+ channel TASK1 and TALK2 in living heterologous expression systems” (PLoS ONE, 2017) are described below.

One assay addresses T1, CFP-TALK2 (human, UniProt Q96T54-3 1-332).
T1 construct: human TALK2 (KCNK17), full-length cDNA NM_031460.3; The end of the tag is read from the order in the construct's name; also called KCNK17; source: HEK293, transiently transfected, in living cells; not shown: CFP, N-terminal, kept
T1 sequence (looked up): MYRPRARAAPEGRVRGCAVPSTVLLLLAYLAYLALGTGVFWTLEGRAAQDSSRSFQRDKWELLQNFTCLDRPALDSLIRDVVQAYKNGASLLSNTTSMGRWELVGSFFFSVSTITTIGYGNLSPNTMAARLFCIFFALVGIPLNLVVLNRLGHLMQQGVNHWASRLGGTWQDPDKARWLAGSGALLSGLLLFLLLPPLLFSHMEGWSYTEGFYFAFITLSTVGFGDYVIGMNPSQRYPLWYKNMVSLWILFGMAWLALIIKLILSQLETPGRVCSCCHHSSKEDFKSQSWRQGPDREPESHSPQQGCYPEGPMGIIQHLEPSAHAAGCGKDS
Nature of the assay: FRET or BRET; acceptor photobleaching FRET (CFP donor, YFP acceptor) in HEK293 cells, confocal microscope; cDNA ratio CFP:YFP 1:1; E_FRET = percent increase in CFP emission after YFP photobleaching. The settings on record: partners not purified. For orientation: BRET reads energy transfer from a luciferase to a nearby fluorophore.

The target of another assay is T2, CFP-TASK1 (human, UniProt O14649 1-394).
T2 construct: human TASK1 (KCNK3), full-length cDNA NM_002246.2; The end of the tag is read from the order in the construct's name; also called KCNK3; source: HEK293, transiently transfected, in living cells; not shown: CFP, N-terminal, kept
The assay is described as above. Particulars: partners not purified.

B1: TALK2-YFP (natural protein, human, UniProt Q96T54-3 1-332, looked up)
chain: MYRPRARAAPEGRVRGCAVPSTVLLLLAYLAYLALGTGVFWTLEGRAAQDSSRSFQRDKWELLQNFTCLDRPALDSLIRDVVQAYKNGASLLSNTTSMGRWELVGSFFFSVSTITTIGYGNLSPNTMAARLFCIFFALVGIPLNLVVLNRLGHLMQQGVNHWASRLGGTWQDPDKARWLAGSGALLSGLLLFLLLPPLLFSHMEGWSYTEGFYFAFITLSTVGFGDYVIGMNPSQRYPLWYKNMVSLWILFGMAWLALIIKLILSQLETPGRVCSCCHHSSKEDFKSQSWRQGPDREPESHSPQQGCYPEGPMGIIQHLEPSAHAAGCGKDS
notes: human TALK2 (KCNK17), full-length cDNA NM_031460.3; The end of the tag is read from the order in the construct's name; also called KCNK17; source: HEK293, transiently transfected, in living cells; not shown: YFP, C-terminal, kept
On to B1, for which, in the assay with CFP-TALK2, the E_FRET came out at 8.6%.

B2: TASK1-YFP (natural protein, human, UniProt O14649 1-394, looked up)
chain: MKRQNVRTLALIVCTFTYLLVGAAVFDALESEPELIERQRLELRQQELRARYNLSQGGYEELERVVLRLKPHKAGVQWRFAGSFYFAITVITTIGYGHAAPSTDGGKVFCMFYALLGIPLTLVMFQSLGERINTLVRYLLHRAKKGLGMRRADVSMANMVLIGFFSCISTLCIGAAAFSHYEHWTFFQAYYYCFITLTTIGFGDYVALQKDQALQTQPQYVAFSFVYILTGLTVIGAFLNLVVLRFMTMNAEDEKRDAEHRALLTRNGQAGGGGGGGSAHTTDTASSTAAAGGGGFRNVYAEVLHFQSMCSCLWYKSREKLQYSIPMIIPRDLSTSDTCVEQSHSSPGGGGRYSDTPSRRCLCSGAPRSAISSVSTGLHSLSTFRGLMKRRSSV
notes: human TASK1 (KCNK3), full-length cDNA NM_002246.2; The end of the tag is read from the order in the construct's name; also called KCNK3; source: HEK293, transiently transfected, in living cells; not shown: YFP, C-terminal, kept
On to B2, for which the E_FRET in the assay with CFP-TALK2 was 7.8%; with CFP-TASK1, 9.8%.
